Broadly, the Kd is the concentration at which binding is half-saturated. As a reminder, the koff is the first-order rate constant of dissociation. Low readings indicate slow dissociation, high ones fast dissociation. What is called kon is the rate constant with which the complex forms. Read a low kon as slower complex formation. The term IC50 denotes the concentration needed to halve the response being measured. Read a low IC50 as inhibition by little substance.

Where “and” joins values, the source holds several entries; their conditions need not be identical. Equal entries are not always repeated.

The target in assay [1] is T1, Human membrane IL-6R on cells (human, UniProt P08887 20-468).
T1 sequence (looked up): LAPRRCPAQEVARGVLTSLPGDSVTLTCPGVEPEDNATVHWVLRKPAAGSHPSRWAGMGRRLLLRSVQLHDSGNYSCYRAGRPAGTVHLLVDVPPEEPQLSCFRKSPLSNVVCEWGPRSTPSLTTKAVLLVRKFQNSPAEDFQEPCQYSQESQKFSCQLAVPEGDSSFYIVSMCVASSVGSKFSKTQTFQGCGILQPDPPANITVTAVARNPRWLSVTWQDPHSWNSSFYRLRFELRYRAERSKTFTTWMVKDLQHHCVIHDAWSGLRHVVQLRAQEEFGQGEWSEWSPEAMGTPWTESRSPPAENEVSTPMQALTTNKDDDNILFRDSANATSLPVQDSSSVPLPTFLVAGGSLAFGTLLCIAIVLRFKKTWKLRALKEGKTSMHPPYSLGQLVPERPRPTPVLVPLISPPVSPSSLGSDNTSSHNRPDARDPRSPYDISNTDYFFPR
Put plainly: cell-based or functional assay.

Assay [2] has as its target T2, Human soluble IL-6R (human, UniProt P08887 20-358).
T2 construct: Soluble recombinant form; biotinylated in some assays; also called hIL-6R; human IL-6R
T2 sequence (looked up): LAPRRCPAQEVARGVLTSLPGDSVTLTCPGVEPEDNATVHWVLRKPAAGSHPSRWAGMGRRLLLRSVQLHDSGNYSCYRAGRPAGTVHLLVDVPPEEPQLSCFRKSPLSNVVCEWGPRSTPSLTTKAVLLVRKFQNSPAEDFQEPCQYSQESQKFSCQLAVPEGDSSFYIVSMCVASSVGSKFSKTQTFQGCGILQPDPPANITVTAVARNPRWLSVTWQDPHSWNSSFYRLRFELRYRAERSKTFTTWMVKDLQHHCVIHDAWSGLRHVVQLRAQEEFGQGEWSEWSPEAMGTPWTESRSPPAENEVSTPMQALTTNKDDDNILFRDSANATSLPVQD
Put plainly: SPR Biacore 3000, IL-6R amine-coupled to CM5. For orientation: In SPR one partner is held on a chip, and binding of the other changes the refractive index at the surface.
Procedure: (§1) Nanobodies were injected at 5 different concentrations between 1 and 50 nM. Flow rate was 45 μl/min in all experiments. Association and dissociation phase were 3 and 10 min, respectively. The chip was regenerated using Glycine/HCl pH 1.5.

The target of another assay is T3, Cyno IL-6R (cynomolgus monkey, UniProt A0A2K5WN54 60-396).
T3 construct: also called cynomolgus monkey IL-6R; recombinant cyno sIL-6R
T3 sequence: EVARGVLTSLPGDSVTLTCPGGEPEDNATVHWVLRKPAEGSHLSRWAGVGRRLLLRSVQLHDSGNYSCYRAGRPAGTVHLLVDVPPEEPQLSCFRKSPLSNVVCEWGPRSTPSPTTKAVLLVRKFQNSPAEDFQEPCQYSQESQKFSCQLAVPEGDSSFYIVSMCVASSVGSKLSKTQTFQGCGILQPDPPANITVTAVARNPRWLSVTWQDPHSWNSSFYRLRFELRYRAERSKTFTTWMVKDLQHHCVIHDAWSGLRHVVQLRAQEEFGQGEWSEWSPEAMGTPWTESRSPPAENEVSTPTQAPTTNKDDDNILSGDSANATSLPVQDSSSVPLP
In words: SPR Biacore 3000, cyno IL-6R amine-coupled to CM5.

Assay [3] deals with T2, Human soluble IL-6R. Put plainly: Alphascreen IL-6/IL-6R competition (IL-6R 0.3 nM, bio-IL-6 3 nM); row EC50 of the fit table, axis [competitor], M; blocked ligand IL-6. A general note: Alpha assays give light when donor and acceptor beads are brought close together.
Assay [4] concerns the target T2, Human soluble IL-6R. In words: Alphascreen, inhibition of bio-IL-6 binding to IL-6R.
Procedure: (§2) Finally streptavidin donor beads were added and after 1 hour incubator the plate was read on the Envision microplate reader.
In a further assay the target is T4, Mouse IL-6R (mouse, UniProt P22272 20-364, limits assumed).
T4 construct: also called mouse sIL-6R
T4 sequence (looked up): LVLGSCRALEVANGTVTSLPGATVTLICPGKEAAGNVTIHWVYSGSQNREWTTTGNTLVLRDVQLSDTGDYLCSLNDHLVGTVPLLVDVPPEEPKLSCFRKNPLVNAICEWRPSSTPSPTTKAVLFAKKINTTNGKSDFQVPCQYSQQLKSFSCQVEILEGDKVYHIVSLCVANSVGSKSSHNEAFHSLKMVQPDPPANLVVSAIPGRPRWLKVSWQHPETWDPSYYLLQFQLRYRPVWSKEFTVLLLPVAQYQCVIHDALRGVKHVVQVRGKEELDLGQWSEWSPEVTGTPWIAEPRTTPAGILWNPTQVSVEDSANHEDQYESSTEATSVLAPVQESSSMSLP
In words: ELISA: plate coated with 1 µg/ml mouse IL-6R, 500 nM Nanobody, anti-myc + anti-mouse-HRP. For orientation: In an ELISA, binding on a coated surface is turned into a signal by an enzyme label.

Assay [5] deals with T2, Human soluble IL-6R. In words: Alphascreen, 100 nM Nanobody, 0.4 nM bio-IL-6R; competitor: reference Fab.
In assay [6] the target is T2, Human soluble IL-6R. Put plainly: competition for IL-6R, competitor reference Fab, summary table C-13.
Assay [7] has as its target T2, Human soluble IL-6R. In words: Biacore off-rate, periplasmic extract.
For assay [8], the target named is T2, Human soluble IL-6R. Put plainly: summary table C-13 of Nanobody characteristics, Kd on IL-6R.
Procedure: as §1
The target in assay [9] is T1, Human membrane IL-6R on cells. In words: cell-based or functional assay. The source holds these as a separate data set.
Assay [10] has as its target T5, Human plasma sIL-6R (human, UniProt P08887 20-355, limits assumed).
T5 construct: also called plasma-derived human IL-6R
T5 sequence (looked up): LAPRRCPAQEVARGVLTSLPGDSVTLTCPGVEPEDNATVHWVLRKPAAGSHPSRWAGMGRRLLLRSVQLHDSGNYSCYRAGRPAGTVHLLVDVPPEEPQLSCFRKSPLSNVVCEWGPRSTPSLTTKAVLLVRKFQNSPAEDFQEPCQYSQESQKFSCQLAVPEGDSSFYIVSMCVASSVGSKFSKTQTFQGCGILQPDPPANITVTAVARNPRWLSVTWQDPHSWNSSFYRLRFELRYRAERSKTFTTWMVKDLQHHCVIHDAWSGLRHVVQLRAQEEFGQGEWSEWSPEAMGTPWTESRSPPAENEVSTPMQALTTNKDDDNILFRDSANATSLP
Put plainly: plasma potency ELISA in human plasma at the EC95 of IL-6 (885 ng/mL); blocked ligand IL-6.

Assay [11] has as its target T2, Human soluble IL-6R. Put plainly: Biacore, binding to IL-6R (parent value).
Assay [12] addresses T1, Human membrane IL-6R on cells. In words: cell-based or functional assay. This is another data set of the same source.
Assay [13] concerns the target T2, Human soluble IL-6R. Put plainly: Alphascreen IL-6/IL-6R competition with purified Nanobody; row EC50 of the table, axis [inhibitor], M; blocked ligand IL-6.
The target of assay [14] is T1, Human membrane IL-6R on cells. In words: cell-based or functional assay. This is another data set of the same source.
Assay [15] concerns the target T5, Human plasma sIL-6R. In words: plasma potency ELISA in human plasma at the EC50 of IL-6 (50 ng/mL); blocked ligand IL-6.
Assay [16] deals with T2, Human soluble IL-6R. Put plainly: inhibition of the IL-6/IL-6R interaction, summary table C-13.
Procedure: as §2
Assay [17] deals with T5, Human plasma sIL-6R. In words: plasma potency assay, human plasma ([IL6R]: ~0.4 nM, [IL6]: 2.4 nM printed); sIL-6R captured on BN-12, bound IL-6 detected; blocked ligand IL-6.
Assay [18] deals with T2, Human soluble IL-6R. Put plainly: Biacore T100.
In assay [19] the target is T2, Human soluble IL-6R. In words: SPR Biacore 3000, human IL-6R amine-coupled to CM5.
Procedure: Remaining reactive groups were inactivated. Nanobody binding was assessed at various concentrations ranging from 0.5 to 50 nM. Each sample was injected for 4 min at a flow rate of 45 μl/min to allow for binding to chip-bound antigen. Next, binding buffer without Nanobody was sent over the chip at the same flow rate to allow for dissociation of bound Nanobody.
For assay [20], the target named is T5, Human plasma sIL-6R. Put plainly: plasma potency assay, human plasma, 42 nM IL6; blocked ligand IL-6.
Procedure: (§3) All 5 affinity matured Nanobodies and the sequence optimized Nanobody were also tested in a plasma potency assay. […] TMB was used as substrate.
The target in assay [21] is T5, Human plasma sIL-6R. Put plainly: plasma potency ELISA, human plasma + human IL-6 50 ng/mL; sIL-6R captured on BN-12, bound IL-6 detected; blocked ligand IL-6.
For assay [22], the target named is T6, Cyno plasma sIL-6R (cynomolgus monkey, UniProt A0A2K5WN54 60-396).
T6 construct: also called cynomolgus sIL-6R
T6 sequence: T3 sequence
In words: plasma potency assay, cyno plasma ([IL6R]: ~0.4 nM, [IL6]: 2.4 nM printed); sIL-6R captured on BN-12, bound IL-6 detected; blocked ligand IL-6.

Assay [23] deals with T2, Human soluble IL-6R. In words: Biacore T100, IL-6R captured via mAb BN-12.
The target of assay [24] is T2, Human soluble IL-6R. Put plainly: SPR (Biacore), binding curves at several concentrations of purified Nanobody on IL-6R.
In assay [25] the target is T6, Cyno plasma sIL-6R. Put plainly: plasma potency ELISA, cyno plasma + human IL-6 50 ng/mL; sIL-6R captured on BN-12, bound IL-6 detected; blocked ligand IL-6.
In assay [26] the target is T5, Human plasma sIL-6R. Put plainly: plasma potency assay, human plasma, 42 nM IL6; sIL-6R captured on BN-12, bound IL-6 detected; blocked ligand IL-6.
For assay [27], the target named is T6, Cyno plasma sIL-6R. In words: plasma potency assay, cyno plasma, 2.4 nM IL6; blocked ligand IL-6.
Procedure: as §3
For assay [28], the target named is T5, Human plasma sIL-6R. Put plainly: plasma potency assay, human plasma, 2.4 nM IL6; blocked ligand IL-6.
Procedure: as §3
Assay [29] deals with T5, Human plasma sIL-6R. In words: plasma potency ELISA, human plasma, IL-6 at EC50 (50 ng/mL).
Assay [30] deals with T2, Human soluble IL-6R. In words: Biacore T100, IL-6R covalently coupled.
Assay [31] addresses T5, Human plasma sIL-6R. Put plainly: plasma potency ELISA, human plasma, IL-6 at EC95 (885 ng/mL).

Procedure for Cyno IL-6R: Remaining reactive groups were inactivated. […] Each sample was injected for 4 min at a flow rate of 45 μl/min to allow for binding to chip-bound antigen. Next, binding buffer without Nanobody was sent over the chip at the same flow rate to allow for dissociation of bound Nanobody.
Procedure for Mouse IL-6R: Detection was performed with anti-myc and anti-mouse-HRP as first and second antibody respectively.

B1: IL6R04 (VHH)
VHH: EVQLVESGGGLVQAGGSLRLSCAASGFTFDDYDIGWFRQAPGKEREGVSGISSSDGNTYYADSVKGRFTISSDNAKNTVYLQMNSLKPEDTAVYYCAAEPPDSSWYLDGSPEFFKYWGQGTQVTVSS
notes: also called PMP32C9; not shown: C-terminal c-myc and (His)6 tags
For the molecule B1, the “IC50 (nM) + HSA, XG-1 cell proliferation” value in assay [1] was 0.1 nM. In addition, the “IC50 (nM), XG-1 cell proliferation” value in assay [1] was 0.1 nM. For the same molecule, the Kd amounted to 0.3 nM with Human soluble IL-6R [2], 171 nM in the assay with Cyno IL-6R, 0.3 nM in the assay with Human soluble IL-6R [8] and 0.3 nM with Human soluble IL-6R [11]. Further, the koff with Human soluble IL-6R [2] was 9.42e-05 s⁻¹ and 0.00015 s⁻¹; with Cyno IL-6R it was 0.01 s⁻¹; with Human soluble IL-6R [7], 0.00015 s⁻¹. For the same molecule, the kon in the assay with Human soluble IL-6R [2] stood at 365000 M⁻¹ s⁻¹; with Cyno IL-6R, 58600 M⁻¹ s⁻¹. Also, the IC50 worked out at 0.18 nM with Human soluble IL-6R [3], 0.093 nM with Human soluble IL-6R [4], 0.0568 nM with Human soluble IL-6R [13] and 0.09 nM with Human soluble IL-6R [16]. For the same molecule, the binding result with Mouse IL-6R is “no binding (tested: 500 nM)”. The “Residual reference-Fab binding to IL-6R (%)” value with Human soluble IL-6R [5] came out at 50%. The “Ref Fab competition (%)” value with Human soluble IL-6R [6] is 50%. The “IC50 (nM) XG-1” value in assay [9] came out at 0.1 nM. Moreover, the “IC50 (read off the curve)” value was around 0.4 nM with Human plasma sIL-6R [10] and around 0.2 nM with Human plasma sIL-6R [15]. In addition, the “IC50 values (nM), XG-1 assay” value in assay [12] stood at 0.1 nM. In addition, in assay [14], the “IC50 (nM), TF1 cell proliferation” value was found to be 0.4 nM.

B2: IL6R65 (VHH)
VHH: EVQLVESGGGLVQPGGSLRLSCAASGSIFKVNAMGWYRQAPGKGRELVAGIISGGSTNYADSVKGRFTISRDNAKNTLYLQMNSLRPEDTAVYYCAFVTTNSDYDLGRDYWGQGTLVTVSS
notes: also called ILR65; parent Nanobody
Take B2: the IC50 with Human plasma sIL-6R [17] amounted to 4.93 nM; with Human plasma sIL-6R [20], 24.8 nM; with Cyno plasma sIL-6R [22], 2.99 nM; with Human plasma sIL-6R [26], 61.5 nM; in the assay with Cyno plasma sIL-6R [27], 0.9 nM; with Human soluble IL-6R [13], 0.147 nM. Also, the IC50 turned out to be 1.9 nM with Human plasma sIL-6R [28], 2.61 nM in the assay with Human plasma sIL-6R [29] and 66.2 nM with Human plasma sIL-6R [31]. Also, the Kd in the assay with Human soluble IL-6R [18] was found to be 3.8 nM; in the assay with Human soluble IL-6R [19] it was 4 nM; with Cyno IL-6R, 12 nM; in the assay with Human soluble IL-6R [24], 4.3 nM. Moreover, the koff with Human soluble IL-6R [19] turned out to be 0.00235 s⁻¹; in the assay with Cyno IL-6R, 0.00197 s⁻¹; with Human soluble IL-6R [30], 0.0038 s⁻¹. Also, the values for the kon with Human soluble IL-6R [19], with Cyno IL-6R and in the assay with Human soluble IL-6R [23] were 600000 M⁻¹ s⁻¹, 165000 M⁻¹ s⁻¹ and 1e+06 M⁻¹ s⁻¹, respectively. For the same molecule, the “IC50 (read off the curve)” value with Human plasma sIL-6R [21] is around 0.7 nM; with Cyno plasma sIL-6R [25], around 0.1 nM. Moreover, in assay [12], the “IC50 values (nM), XG-1 assay” value came to 26 nM.

For the origin of these results see patent publication US20120077731A1 (Ablynx, published 2012).
